Here are results for 3 molecules from patent publication US20230250154A1 (CYTONICS, published 2023).

Assay in all cases: cell-based or functional assay
In one assay the target is T1, ADAMTS4 (human, UniProt O75173 213-685, limits assumed).
T1 sequence (looked up): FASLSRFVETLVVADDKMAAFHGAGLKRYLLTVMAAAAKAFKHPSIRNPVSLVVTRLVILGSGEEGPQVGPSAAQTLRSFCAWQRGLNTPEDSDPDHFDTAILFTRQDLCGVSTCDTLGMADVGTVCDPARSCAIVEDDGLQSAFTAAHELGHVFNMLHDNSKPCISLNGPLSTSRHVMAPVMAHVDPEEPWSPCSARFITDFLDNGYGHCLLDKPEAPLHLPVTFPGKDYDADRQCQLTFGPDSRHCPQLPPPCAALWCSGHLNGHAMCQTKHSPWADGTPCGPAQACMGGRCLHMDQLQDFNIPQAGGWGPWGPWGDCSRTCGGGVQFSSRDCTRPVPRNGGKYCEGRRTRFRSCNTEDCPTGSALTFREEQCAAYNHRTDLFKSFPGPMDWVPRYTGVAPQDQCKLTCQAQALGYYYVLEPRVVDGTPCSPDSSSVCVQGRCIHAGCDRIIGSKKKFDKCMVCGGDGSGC

A further assay addresses T2, ADAMTS5 (human, UniProt Q9UNA0 262-622, limits assumed).
T2 sequence (looked up): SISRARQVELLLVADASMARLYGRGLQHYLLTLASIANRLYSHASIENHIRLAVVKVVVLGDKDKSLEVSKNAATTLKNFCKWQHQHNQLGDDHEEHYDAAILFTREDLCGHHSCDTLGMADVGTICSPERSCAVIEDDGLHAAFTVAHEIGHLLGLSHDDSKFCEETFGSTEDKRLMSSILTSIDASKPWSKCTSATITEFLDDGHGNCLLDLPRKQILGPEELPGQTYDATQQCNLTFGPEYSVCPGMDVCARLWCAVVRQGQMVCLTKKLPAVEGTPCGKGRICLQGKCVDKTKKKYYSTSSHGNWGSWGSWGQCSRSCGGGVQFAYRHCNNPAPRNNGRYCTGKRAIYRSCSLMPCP

For the next assay, the target named is MMP13 (human, UniProt P45452 104-471, limits assumed).

B1: Variant A2M, bait region SEQ ID NO 111 (other)
chain: SVSGKPQYMVLVPSLLHTETTEKGCVLLSYLNETVTVSASLESVRGNRSLFTDLEAENDVLHCVAFAVPKSSSNEEVMFLTVQVKGPTQEFKKRTTVMVKNEDSLVFVQTDKSIYKPGQTVKFRVVSMDENFHPLNELIPLVYIQDPKGNRIAQWQSFQLEGGLKQFSFPLSSEPFQGSYKVVVQKKSGGRTEHPFTVEEFVLPKFEVQVTVPKIITILEEEMNVSVCGLYTYGKPVPGHVTVSICRKYSDASDCHGEDSQAFCEKFSGQLNSHGCFYQQVKTKVFQLKRKEYEMKLHTEAQIQEEGTVVELTGRQSSEITRTITKLSFVKVDSHFRQGIPFFGQVRLVDGKGVPIPNKVIFIRGNEANYYSNATTDEHGLVQFSINTTNVMGTSLTVRVNYKDRSPCYGYQWVSEEHEEAHHTAYLVFSPSKSFVHLEPMSHELPCGHTQTVQAHYILNGGTLLGLKKLSFYYLIMAKGGIVRTGTHGLLVKQEDMKGHFSISIPVKSDIAPVARLLIYAVLPTGDVIGDSAKYDVENCLANKVDLSFSPSQSLPASHAHLRVTAAPQSVCALRAVDQSVLLMKPDAELSASSVYNLLPEKDLTGFPGPLNDQDDEDCINRHNVYINGITYTPVSSTNEKDMYSFLEDMGLKAFTNSKIRKPKMCPQLEARGLEGGGGGSLLGGYPGSSRGGFKEGVEGGPAGAARGKLRKYFPETWIWDLVVVNSAGVAEVGVTVPDTITEWKAGAFCLSEDAGLGISSTASLRAFQPFFVELTMPYSVIRGEAFTLKATVLNYLPKCIRVSVQLEASPAFLAVPVEKEQAPHCICANGRQTVSWAVTPKSLGNVNFTVSAEALESQELCGTEVPSVPEHGRKDTVIKPLLVEPEGLEKETTFNSLLCPSGGEVSEELSLKLPPNVVEESARASVSVLGDILGSAMQNTQNLLQMPYGCGEQNMVLFAPNIYVLDYLNETQQLTPEIKSKAIGYLNTGYQRQLNYKHYDGSYSTFGERYGRNQGNTWLTAFVLKTFAQARAYIFIDEAHITQALIWLSQRQKDNGCFRSSGSLLNNAIKGGVEDEVTLSAYITIALLEIPLTVTHPVVRNALFCLESAWKTAQEGDHGSHVYTKALLAYAFALAGNQDKRKEVLKSLNEEAVKKDNSVHWERPQKPKAPVGHFYEPQAPSAEVEMTSYVLLAYLTAQPAPTSEDLTSATNIVKWITKQQNAQGGFSSTQDTVVALHALSKYGAATFTRTGKAAQVTIQSSGTFSSKFQVDNNNRLLLQQVSLPELPGEYSMKVTGEGCVYLQTSLKYNILPEKEEFPFALGVQTLPQTCDEPKAHTSFQISLSVSYTGSRSASNMAIVDVKMVSGFIPLKPTVKMLERSNHVSRTEVSSNHVLIYLDKVSNQTLSLFFTVLQDVPVRDLKPAIVKVYDYYETDEFAIAEYNAPCSKDLGNADYKDDDDKGASHHHHHH
For B1, the “Protease Inhibition (% of WT)” value with ADAMTS4 was 105 % of WT; with ADAMTS5, 89 % of WT; in the assay with MMP13, 113 % of WT.

B2: Variant A2M, bait region SEQ ID NO 112 (other)
chain: SVSGKPQYMVLVPSLLHTETTEKGCVLLSYLNETVTVSASLESVRGNRSLFTDLEAENDVLHCVAFAVPKSSSNEEVMFLTVQVKGPTQEFKKRTTVMVKNEDSLVFVQTDKSIYKPGQTVKFRVVSMDENFHPLNELIPLVYIQDPKGNRIAQWQSFQLEGGLKQFSFPLSSEPFQGSYKVVVQKKSGGRTEHPFTVEEFVLPKFEVQVTVPKIITILEEEMNVSVCGLYTYGKPVPGHVTVSICRKYSDASDCHGEDSQAFCEKFSGQLNSHGCFYQQVKTKVFQLKRKEYEMKLHTEAQIQEEGTVVELTGRQSSEITRTITKLSFVKVDSHFRQGIPFFGQVRLVDGKGVPIPNKVIFIRGNEANYYSNATTDEHGLVQFSINTTNVMGTSLTVRVNYKDRSPCYGYQWVSEEHEEAHHTAYLVFSPSKSFVHLEPMSHELPCGHTQTVQAHYILNGGTLLGLKKLSFYYLIMAKGGIVRTGTHGLLVKQEDMKGHFSISIPVKSDIAPVARLLIYAVLPTGDVIGDSAKYDVENCLANKVDLSFSPSQSLPASHAHLRVTAAPQSVCALRAVDQSVLLMKPDAELSASSVYNLLPEKDLTGFPGPLNDQDDEDCINRHNVYINGITYTPVSSTNEKDMYSFLEDMGLKAFTNSKIRKPKMCPQLEPGLAPGGEEGVEEGGPEEGVEEGGFKEGVEGEPESSGKLRKYFPETWIWDLVVVNSAGVAEVGVTVPDTITEWKAGAFCLSEDAGLGISSTASLRAFQPFFVELTMPYSVIRGEAFTLKATVLNYLPKCIRVSVQLEASPAFLAVPVEKEQAPHCICANGRQTVSWAVTPKSLGNVNFTVSAEALESQELCGTEVPSVPEHGRKDTVIKPLLVEPEGLEKETTFNSLLCPSGGEVSEELSLKLPPNVVEESARASVSVLGDILGSAMQNTQNLLQMPYGCGEQNMVLFAPNIYVLDYLNETQQLTPEIKSKAIGYLNTGYQRQLNYKHYDGSYSTFGERYGRNQGNTWLTAFVLKTFAQARAYIFIDEAHITQALIWLSQRQKDNGCFRSSGSLLNNAIKGGVEDEVTLSAYITIALLEIPLTVTHPVVRNALFCLESAWKTAQEGDHGSHVYTKALLAYAFALAGNQDKRKEVLKSLNEEAVKKDNSVHWERPQKPKAPVGHFYEPQAPSAEVEMTSYVLLAYLTAQPAPTSEDLTSATNIVKWITKQQNAQGGFSSTQDTVVALHALSKYGAATFTRTGKAAQVTIQSSGTFSSKFQVDNNNRLLLQQVSLPELPGEYSMKVTGEGCVYLQTSLKYNILPEKEEFPFALGVQTLPQTCDEPKAHTSFQISLSVSYTGSRSASNMAIVDVKMVSGFIPLKPTVKMLERSNHVSRTEVSSNHVLIYLDKVSNQTLSLFFTVLQDVPVRDLKPAIVKVYDYYETDEFAIAEYNAPCSKDLGNADYKDDDDKGASHHHHHH
For the molecule B2, the “Protease Inhibition (% of WT)” value is 108 % of WT with ADAMTS4, 199 % of WT with ADAMTS5 and 56 % of WT with MMP13.

B3: Variant A2M, bait region SEQ ID NO 110 (other)
chain: SVSGKPQYMVLVPSLLHTETTEKGCVLLSYLNETVTVSASLESVRGNRSLFTDLEAENDVLHCVAFAVPKSSSNEEVMFLTVQVKGPTQEFKKRTTVMVKNEDSLVFVQTDKSIYKPGQTVKFRVVSMDENFHPLNELIPLVYIQDPKGNRIAQWQSFQLEGGLKQFSFPLSSEPFQGSYKVVVQKKSGGRTEHPFTVEEFVLPKFEVQVTVPKIITILEEEMNVSVCGLYTYGKPVPGHVTVSICRKYSDASDCHGEDSQAFCEKFSGQLNSHGCFYQQVKTKVFQLKRKEYEMKLHTEAQIQEEGTVVELTGRQSSEITRTITKLSFVKVDSHFRQGIPFFGQVRLVDGKGVPIPNKVIFIRGNEANYYSNATTDEHGLVQFSINTTNVMGTSLTVRVNYKDRSPCYGYQWVSEEHEEAHHTAYLVFSPSKSFVHLEPMSHELPCGHTQTVQAHYILNGGTLLGLKKLSFYYLIMAKGGIVRTGTHGLLVKQEDMKGHFSISIPVKSDIAPVARLLIYAVLPTGDVIGDSAKYDVENCLANKVDLSFSPSQSLPASHAHLRVTAAPQSVCALRAVDQSVLLMKPDAELSASSVYNLLPEKDLTGFPGPLNDQDDEDCINRHNVYINGITYTPVSSTNEKDMYSFLEDMGLKAFTNSKIRKPKMCPQLETEGRGEREAQGEFPEVEGEEEGGGPEKETGGEREAQGKLRKYFPETWIWDLVVVNSAGVAEVGVTVPDTITEWKAGAFCLSEDAGLGISSTASLRAFQPFFVELTMPYSVIRGEAFTLKATVLNYLPKCIRVSVQLEASPAFLAVPVEKEQAPHCICANGRQTVSWAVTPKSLGNVNFTVSAEALESQELCGTEVPSVPEHGRKDTVIKPLLVEPEGLEKETTFNSLLCPSGGEVSEELSLKLPPNVVEESARASVSVLGDILGSAMQNTQNLLQMPYGCGEQNMVLFAPNIYVLDYLNETQQLTPEIKSKAIGYLNTGYQRQLNYKHYDGSYSTFGERYGRNQGNTWLTAFVLKTFAQARAYIFIDEAHITQALIWLSQRQKDNGCFRSSGSLLNNAIKGGVEDEVTLSAYITIALLEIPLTVTHPVVRNALFCLESAWKTAQEGDHGSHVYTKALLAYAFALAGNQDKRKEVLKSLNEEAVKKDNSVHWERPQKPKAPVGHFYEPQAPSAEVEMTSYVLLAYLTAQPAPTSEDLTSATNIVKWITKQQNAQGGFSSTQDTVVALHALSKYGAATFTRTGKAAQVTIQSSGTFSSKFQVDNNNRLLLQQVSLPELPGEYSMKVTGEGCVYLQTSLKYNILPEKEEFPFALGVQTLPQTCDEPKAHTSFQISLSVSYTGSRSASNMAIVDVKMVSGFIPLKPTVKMLERSNHVSRTEVSSNHVLIYLDKVSNQTLSLFFTVLQDVPVRDLKPAIVKVYDYYETDEFAIAEYNAPCSKDLGNADYKDDDDKGASHHHHHH
For the molecule B3, the “Protease Inhibition (% of WT)” value with ADAMTS4 is 101 % of WT; in the assay with ADAMTS5, 208 % of WT; in the assay with MMP13 it was 51 % of WT.
